What all share (experiment): two-hybrid library CCNG1;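 note: natural log of median RNA to DNA barcode read ratio; higher means stronger binding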
The target in one test is T1, P7A-bS.
T1 chain: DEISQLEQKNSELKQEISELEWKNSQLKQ

For another test, the target named is T2, P6A-bS.
T2 chain: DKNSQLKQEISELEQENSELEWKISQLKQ

Another test addresses T3, P8A-bS.
T3 chain: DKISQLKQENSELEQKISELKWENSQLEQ

For the next test, the target named is T4, P9A-bS.
T4 chain: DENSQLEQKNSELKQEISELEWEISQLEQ

For a further test, the target named is T5, 4H496-bA.
T5 chain: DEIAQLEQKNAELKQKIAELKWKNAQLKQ

The next test has as its target T6, 4H470-bH.
T6 chain: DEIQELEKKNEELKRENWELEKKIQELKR

A further test has as its target T7, 4H3961-bH.
T7 chain: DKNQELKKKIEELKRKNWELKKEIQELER
As to conditions: mean of both orientations.

B1: P6A-bS (peptide)
chain: DKNSQLKQEISELEQENSELEWKISQLKQ
For B1, the interaction score is 1.24 with P7A-bS, -2.31 in the test with P6A-bS, 0.0461 in the test with P8A-bS and -0.77 with P9A-bS.

B2: 4H496-bA (peptide)
chain: DEIAQLEQKNAELKQKIAELKWKNAQLKQ
For the molecule B2, the interaction score with 4H496-bA is -0.521.

B3: 4H3961-bH (peptide)
chain: DKNQELKKKIEELKRKNWELKKEIQELER
As to B3, the interaction score with 4H470-bH was 1.3; with 4H3961-bH it was -1.2.

The values above are taken from paper PMC10397247.
